# According to patent US20210009714A1 (Regeneron, published 2021):
# B1: FD1-hFc (Fc fusion, UniProt Q15389 277-498, looked up)
# chain: REEEKPFRDCADVYQAGFNKSGIYTIYINNMPEPKKVFCNMDVNGGGWTVIQHREDGSLDFQRGWKEYKMGFGNPSGEYWLGNEFIFAITSQRQYMLRIELMDWEGNRAYSQYDRFHIGNEKQNYRLYLKGHTGTAGKQSSLILHGADFSTKDADNDNCMCKCALMLTGGWWFDACGPSNLNGMFYTAGQNHGKLNGIKWHYFKGPSYSLRSTTMMIRPLDF
# notes: also called FD1-Fc; not shown: hFc
# B2: Ab2 (antibody, V domains shown)
# VH: QLQQSGAELAKPGASVKMSCKASGYTFTNYWIHWEKQRPEQGLEWIGYINPNTGHTEYNQKFKDKATLTADRSSSTAYMQLSSLTSEDSAVYFCARTYSGSSHFDYWGQGTTL
# VL: DIVMTQTPVSLPVSLGDQASISCRSSQSLVHNNGDTFLHWYLQKPGQSPKLLIYKVSNRFSGVPDRFSGSGSGTDFTLKISRVEAEDLGVYFCSQTTLIPRTFGGGTKLEI
# notes: Monoclonal from Velocimmune mice, captured on an anti-mouse-Fc surface in the SPR study; also called Fc-specific Ab2; Ab2 anti-Fc antibody
# B3: Ab6 (antibody, mouse IgG2a, kappa, V domains shown)
# VH: EVQLVESGGAIVKPGGSHRVSCEASGFTFSNAWMSWVRQAPGRGLEWVGRILSKTDGGTTDYAAPVKDRFTISRDDSKNMLFLQMDSLKIEDTAVYFCTTADFWSAYSSDYWGQGTLVTVSS
# VL: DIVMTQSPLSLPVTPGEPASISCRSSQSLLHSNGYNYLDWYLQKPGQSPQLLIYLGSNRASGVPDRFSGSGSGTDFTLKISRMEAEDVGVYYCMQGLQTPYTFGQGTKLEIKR
# notes: also called Fc*-specific Ab6; Ab6 anti-Fc* antibody
# What was measured:
# Tie2 = biological target: T1, Tie2 (UniProt Q02763 23-748, limits assumed); assay: BIAcore
# T1 construct: also called Tie2 receptor
# [1] = biological target: IgG4 Fc/Fc* bispecific antibody; assay: flow cytometry sandwich: antibody displayed on cells by CSCP FcγR, labeled Ab2 as detection molecule
# [2] = biological target: IgG1 Fc/Fc monospecific antibody; assay: as above
# [3] = biological target: IgG4 Fc*/Fc* monospecific antibody; assay: as above
# [4] = biological target: IgG1 Fc/Fc* bispecific antibody; assay: as above
# [5] = biological target: IgG4 Fc/Fc monospecific antibody; assay: as above
# [6] = biological target: IgG1 Fc/Fc monospecific antibody; assay: flow cytometry sandwich: antibody displayed on cells by CSCP FcγR, labeled Ab6 as detection molecule
# [7] = biological target: IgG1 Fc/Fc* bispecific antibody; assay: as above
# [8] = biological target: IgG1 Fc*/Fc* monospecific antibody; assay: as above
# human Fc* homodimer = biological target: T2, human Fc* homodimer (human); assay: SPR (Biacore 2000); mAb captured on anti-mouse-Fc surface, Fc dimer injected; 1:1 fit
# T2 construct: also called Fc*/Fc*; human ΔAdpFc polypeptide
# Description: Measurements to determine binding affinities and kinetic constants were made on a Biacore 2000 instrument. […] Kinetic association (kₐ) and dissociation (kd) rate constants were determined by processing and fitting the data to a 1:1 binding model using Scrubber 2.0 curve fitting software.
# [9] = biological target: IgG4 Fc/Fc* bispecific antibody; assay: flow cytometry sandwich: antibody displayed on cells by CSCP ScFv-FcγR, hFc block, FITC-labeled Ab6 as detection molecule
# [10] = biological target: IgG1 Fc/Fc monospecific antibody; assay: as above
# [11] = biological target: IgG1 Fc/Fc* bispecific antibody; assay: as above
# [12] = biological target: IgG4 Fc/Fc monospecific antibody; assay: as above
# T1 sequence (Q02763 23-748 limits assumed): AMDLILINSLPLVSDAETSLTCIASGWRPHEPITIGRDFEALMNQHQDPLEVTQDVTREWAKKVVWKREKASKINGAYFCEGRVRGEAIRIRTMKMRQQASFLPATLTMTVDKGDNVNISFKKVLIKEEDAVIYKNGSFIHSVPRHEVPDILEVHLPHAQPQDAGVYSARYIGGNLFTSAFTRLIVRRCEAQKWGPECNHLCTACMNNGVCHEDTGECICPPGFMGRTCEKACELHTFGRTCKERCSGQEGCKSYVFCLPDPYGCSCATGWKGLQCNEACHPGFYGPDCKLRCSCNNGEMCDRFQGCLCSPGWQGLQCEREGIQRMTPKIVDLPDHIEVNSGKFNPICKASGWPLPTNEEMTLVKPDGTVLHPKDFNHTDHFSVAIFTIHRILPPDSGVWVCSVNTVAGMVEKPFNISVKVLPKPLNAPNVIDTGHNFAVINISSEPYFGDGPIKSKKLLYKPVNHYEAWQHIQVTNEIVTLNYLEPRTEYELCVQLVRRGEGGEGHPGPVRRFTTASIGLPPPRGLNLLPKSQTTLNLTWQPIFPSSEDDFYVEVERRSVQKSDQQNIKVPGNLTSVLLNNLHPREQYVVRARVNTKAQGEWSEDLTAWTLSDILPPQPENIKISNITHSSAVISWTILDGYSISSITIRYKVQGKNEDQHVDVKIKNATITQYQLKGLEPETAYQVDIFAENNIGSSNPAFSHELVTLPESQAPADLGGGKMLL
binder,measurement,setting,value
B1,Kd,Tie2,174 nM
B2,MFI,[1],200
same,MFI,[2],350
same,MFI,[3],200
same,MFI,[4],500
same,MFI,[5],200
B3,MFI,[6],200
same,MFI,[7],200
same,MFI,[8],200
same,t1/2,human Fc* homodimer,19 min
same,MFI,[9],500
same,MFI,[10],15
same,MFI,[11],500
same,MFI,[12],15
